Test results taken from US20080166345A1, “MEDICAMENTS COMPRISING GENE RECOMBINANT ANTIBODY AGAINST GANGLIOSIDE GD3” (KYOWA HAKKO KOGYO CO., LTD., priority 2001, published 2008).

Assays:
[1] = system: human melanoma culture cell line SK-MEL-28; assay: In vitro cytotoxic activity (ADCC activity), 51Cr release; format: cell-based; conditions: antibody 0.05 to 50 μg/ml, effector:target 50:1; FIG. 25
Procedure: (§1) Each of human melanoma culture cell lines, G-361 (ATCC CRL 1424) and SK-MEL-28 (ATCC HTB72), was cultured in RPMI1640-FBS(10) medium and adjusted to 1×10^6 cells, and the cells were isotope-labeled by adding 1.85 MBq equivalent of a radioactive substance Na2^51CrO4 and carrying out the reaction at 37° C. for 1 hour. After the reaction, the cells were washed three times by their suspension in RPMI1640-FBS(10) medium and centrifugation, re-suspended in the medium and then incubated in ice at 4° C. for 30 minutes to thereby spontaneously release the radioactive substance. After centrifugation, the cells were adjusted to 2×10^5 cells/ml by adding 5 ml of RPMI1640-FBS(10) medium and used as the target cell suspension.
(§2) Healthy human vein blood (50 ml) was collected, and 0.5 ml of heparin sodium (manufactured by Takeda Pharmaceutical) was gently added thereto. The resulting mixture was centrifuged (1,500 to 1,800×g for 30 minutes) using Polymorphprep (manufactured by Nycomed Pharma AS) in accordance with the manufacturers instructions to separate a mononuclear cell layer. […]
(§3) Into each well of a 96 well U bottom plate (manufactured by Falcon), 50 μl of the target cell suspension prepared in “a.” was dispensed (1×10^4 cells/well). […] After the reaction, the plate was centrifuged and the amount of ^51Cr in the supernatant was measured by a γ-counter. The amount of the spontaneously dissociated ^51Cr was calculated by carrying out the same procedure using the medium alone instead of the effector cell suspension and antibody solution and measuring the amount of ^51Cr in the supernatant. The amount of the total dissociated ^51Cr was calculated by carrying out the same procedure by adding the medium alone instead of the antibody solution, and 5 N sodium hydroxide instead of the effector cell suspension, and measuring the amount of ^51Cr in the supernatant. The ADCC activity was calculated by the following equation.

[2] = system: human melanoma culture cell line G-361; assay: as above; format: cell-based; conditions: FIG. 25
Procedure: as §1, §2, §3

[3] = Reactivity of purified antibodies with various gangliosides (ELISA); format: binding; conditions: antibody 10 μg/ml, 20 pmol/well; FIG. 22
Procedure: Each ganglioside (2 nmol) was dissolved in […] of ethanol solution containing 10 μg of dipalmitoylphosphatidylcholine (manufactured by SIGMA) and 5 μg of cholesterol (manufactured by SIGMA). In each well of a 96 well plate for ELISA (manufactured by Greiner), 20 μl of the solution (becomes 20 pmol/well) or 20 μl of the solution diluted with ethanol was respectively dispensed, followed by air-drying, and then PBS containing 1% BSA (hereinafter referred to as “1% BSA-PBS”) was added in 100 μl/well and allowed to react at room temperature for 1 hour to thereby block remaining active groups. After discarding 1% BSA-PBS, culture supernatants of transformants or diluted solutions of humanized antibodies were added in 50 μl/well and allowed to react at room temperature for 1 hour. […] After the reaction and subsequent washing with Tween-PBS, an ABTS substrate solution (a solution prepared by dissolving 0.55 g of 2,2′-azinobis(3-ethylbenzothiazoline-6-sulfonic acid) in 1 L of 0.1 M citrate buffer (pH 4.2) and adding 1 μl/ml hydrogen peroxide just before the use) was added in 50 μl/well for color development and the absorbance at 415 nm (hereinafter referred to as “OD415”) was measured.
Reactivity of purified anti-GD3 CDR-grafted antibodies KM8869, KM8870 and KM8871 with GD3 (manufactured by DIA-IATRON) was measured by the ELISA shown in the item 2 of Reference Example. […]

[4] = human serum as complement source; cited from earlier work

binding to ganglioside [3]: weakly
B1: KM871: anti-GD3 human chimeric antibody; VH SEQ ID NO:49, VL SEQ ID NO:50, human IgG1 and κ C regions (antibody, listed as Mus musculus, V domains shown)
VH: EVTLVESGGDFVKPGGSLKVSCAASGFAFSHYAMSWVRQTPAKRLEWVAYISSGGSGTYYSDSVKGRFTISRDNAKNTLYLQMRSLRSEDSAMYFCTRVKLGTYYFDSWGQGTTLTVSS
VL: DIQMTQTASSLPASLGDRVTISCSASQDISNYLNWYQQKPDGTVKLLIFYSSNLHSGVPSRFSGGGSGTDYSLTISNLEPEDIATYFCHQYSKLPWTFGGGTKLEIKR
modifications: human IgG1 and kappa constant regions
ADCC activity [1]: strong ADCC activity
difference in ADCC cytotoxic activity among KM871, KM8869, KM8870 and KM8871 ([2]; G-361 and SK-MEL-28): difference in the cytotoxic activity was not found
ADCC activity ([2]; antibody 0.05 to 50 μg/ml, effector:target 50:1): strong ADCC activity
CDC activity in comparison with the original mouse-derived antibody [4]: increased
